Data as given in US20110236969A1.
Substitutions are numbered along the chain they refer to. Each block holds one molecule with its values, some of them ahead of it.

Key:
[1] = target: GST-fused human V158 FcγRIIIa (extracellular region) (human) (UniProt P08637); test: AlphaScreen competition with biotin-WT AC10
[2] = target: GST-fused human V158 FcγRIIIa (extracellular region) (human) (UniProt P08637); test: SPR, GST-FcγRIIIa V158 on chip
[3] = target: T1, human CD30 (commercial), conjugated to digoxigenin (human) (UniProt P28908); test: AlphaScreen competition with biotin-WT AC10
T1 sequence (conjugated to digoxigenin (DIG), looked up): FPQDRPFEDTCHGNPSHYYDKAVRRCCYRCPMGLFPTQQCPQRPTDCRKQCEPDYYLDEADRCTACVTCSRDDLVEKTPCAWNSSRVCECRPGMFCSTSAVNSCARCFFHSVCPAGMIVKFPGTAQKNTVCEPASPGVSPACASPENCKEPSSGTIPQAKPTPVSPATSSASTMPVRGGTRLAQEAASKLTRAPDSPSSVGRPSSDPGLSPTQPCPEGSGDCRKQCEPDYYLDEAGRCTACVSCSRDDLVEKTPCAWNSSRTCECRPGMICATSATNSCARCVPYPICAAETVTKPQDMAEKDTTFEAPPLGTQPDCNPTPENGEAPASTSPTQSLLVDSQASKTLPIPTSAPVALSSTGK

[4] = target: CD30 fused to the Fc region of IgG1 (R&D Systems) (UniProt P28908); test: SPR, CD30-Fc on Protein A chip

GST-fused human V158 FcγRIIIa (extracellular region) (human), sequence (P08637 17-208 F176V): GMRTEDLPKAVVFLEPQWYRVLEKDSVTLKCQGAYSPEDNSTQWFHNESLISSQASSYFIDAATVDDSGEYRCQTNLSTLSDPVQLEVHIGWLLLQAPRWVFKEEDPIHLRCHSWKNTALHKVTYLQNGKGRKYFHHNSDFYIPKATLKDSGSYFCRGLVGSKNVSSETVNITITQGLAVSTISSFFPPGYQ

Molecule: WT AC10 antibody H0L0 (H0 AC10 VH, L0 AC10 VL)
- IC50 [1]: 87.2 nM
- Kd [2]: 18.6 nM

B1: AC10 H1L2 (H1 AC10 VH, L2 AC10 VL) (antibody, from a related filing, IgG1, V domains shown)
VH: QIQLVQSGPEVKKPGASVKVSCKASGYTFTDYYITWVRQAPGQGLEWMGWIYPGSGNTKYNEKFQGRVTITVDTSASTAYMELSSLRSEDTAVYFCANYGNYWFAYWGQGTLVTVSS
VL: DIVLTQSPSSLSASVGDRVTITCRASQSVDFDGDSYMNWYQQKPGQPPKVLIYAASNLESGIPARFSGSGSGTDFTLTISSLQPEDFATYYCQQSNEDPWTFGGGTKVEIK
- Fold IC50 relative to WT [1]: 0.26 fold
- IC50 [1]: 340 nM
- Fold IC50 relative to WT [3]: 0.07 fold
- IC50 [3]: 45.3 nM
- Fold KD relative to WT [2]: 1.12 fold
- Kd [2]: 16.6 nM
- Fold KD relative to WT [4]: 0.45 fold
- Kd [4]: 7.55 nM

B2: AC10 H2L1 (H2 AC10 VH, L1 AC10 VL) (antibody, from a related filing, IgG1, V domains shown)
VH: QIQLVESGGGLVKPGGSLRLSCAASGYTFTDYYITWVRQAPGQGLEWMGWIYPGSGNTKYNEKFQGRVTMTVDTSTSTAYMELSSLRSEDTAVYFCANYGNYWFAYWGQGTLVTVSS
VL: B1 VL with S9A, S10T, A13L, V15P, D17E, V19A, I21L, T22S
- Fold IC50 relative to WT [1]: 0.12 fold
- IC50 [1]: 751 nM
- Fold IC50 relative to WT [3]: 0.06 fold
- IC50 [3]: 55.1 nM
- Fold KD relative to WT [2]: 1.25 fold
- Kd [2]: 14.9 nM
- Fold KD relative to WT [4]: 0.36 fold
- Kd [4]: 9.49 nM

B5: AC10 H3L1 (H3 AC10 VH, L1 AC10 VL) (antibody, from a related filing, IgG1, V domains shown)
VH: B1 VH with V68F, T69V, I70F, T71S, M81L, E82Q, L83I, R87K, S88A
VL: B1 VL with S9A, S10T, A13L, V15P, D17E, V19A, I21L, T22S
- IC50 [1]: 209 nM
- IC50 [3]: 6.09 nM
- Kd [2]: 17.4 nM
- Fold KD relative to WT [4]: 1.39 fold
- Kd [4]: 2.44 nM

The next molecules have a lower Kd [2] than those just listed; values first:

- Fold IC50 relative to WT [1]: 0.39 fold
- IC50 [1]: 221 nM
- Fold IC50 relative to WT [3]: 0.11 fold
- IC50 [3]: 27.7 nM
- Fold KD relative to WT [2]: 1.66 fold
- Kd [2]: 11.2 nM
- Fold KD relative to WT [4]: 0.6 fold
- Kd [4]: 5.63 nM
B4: AC10 H1L1 (H1 AC10 VH, L1 AC10 VL) (antibody, from a related filing, IgG1, V domains shown)
VH: B1 VH
VL: B1 VL with S9A, S10T, A13L, V15P, D17E, V19A, I21L, T22S

- Fold IC50 relative to WT [1]: 0.49 fold
- IC50 [1]: 178 nM
- Fold IC50 relative to WT [3]: 0.18 fold
- IC50 [3]: 17.4 nM
- Fold KD relative to WT [2]: 1.66 fold
- Kd [2]: 11.2 nM
- Fold KD relative to WT [4]: 0.67 fold
- Kd [4]: 5.09 nM
B6: AC10 H1L3 (H1 AC10 VH, L3 AC10 VL) (antibody, from a related filing, IgG1, V domains shown)
VH: B1 VH
VL: DIVLTQSPDSLAVSLGERATINCKASQSVDFDGDSYMNWYQQKPGQPPKVLIYAASNLESGIPARFSGSGSGTDFTLTINSLEAEDAATYYCQQSNEDPWTFGGGTKVEIK

- Fold IC50 relative to WT [1]: 1.04 fold
- IC50 [1]: 83.5 nM
- Fold IC50 relative to WT [3]: 1.59 fold
- IC50 [3]: 1.99 nM
- Fold KD relative to WT [2]: 3.03 fold
- Kd [2]: 6.13 nM
- Fold KD relative to WT [4]: 1.45 fold
- Kd [4]: 2.33 nM
B3: AC10 H3L3 (H3 AC10 VH, L3 AC10 VL) (antibody, from a related filing, IgG1, V domains shown)
VH: B1 VH with V68F, T69V, I70F, T71S, M81L, E82Q, L83I, R87K, S88A
VL: B6 VL

- IC50 [3]: 49.2 nM
- Kd [2]: 4.01 nM
- Kd [4]: 5.95 nM
B7: AC10 H2L2 (H2 AC10 VH, L2 AC10 VL) (antibody, from a related filing, IgG1, V domains shown)
VH: B2 VH
VL: B1 VL

- Fold IC50 relative to WT [1]: 0.48 fold
- IC50 [1]: 183 nM
- Fold IC50 relative to WT [3]: 0.12 fold
- IC50 [3]: 27.2 nM
- Fold KD relative to WT [2]: 5.28 fold
- Kd [2]: 3.52 nM
- Fold KD relative to WT [4]: 0.5 fold
- Kd [4]: 6.75 nM
B8: AC10 H2L3 (H2 AC10 VH, L3 AC10 VL) (antibody, from a related filing, IgG1, V domains shown)
VH: B2 VH
VL: B6 VL
